In patent US20200071711, “MODULAR CONSTRUCTION OF SYNTHETIC GENE CIRCUITS IN MAMMALIAN CELLS USING MATHEMATICAL MODELING OF CLOSED LOOP TRANSCRIPTIONAL REPRESSORS” (Tsinghua University, published 2020):

What was measured:
Assay in all cases: cell_activity; HEK293, two sites flanking CMVmini
Details in all cases: tags: EYFP-2A upstream, SV40 NLS
[1] = molecular target: T1, TALER20 (synthetic, UniProt B2SU53 SEQ:1-1010)
T1 chain: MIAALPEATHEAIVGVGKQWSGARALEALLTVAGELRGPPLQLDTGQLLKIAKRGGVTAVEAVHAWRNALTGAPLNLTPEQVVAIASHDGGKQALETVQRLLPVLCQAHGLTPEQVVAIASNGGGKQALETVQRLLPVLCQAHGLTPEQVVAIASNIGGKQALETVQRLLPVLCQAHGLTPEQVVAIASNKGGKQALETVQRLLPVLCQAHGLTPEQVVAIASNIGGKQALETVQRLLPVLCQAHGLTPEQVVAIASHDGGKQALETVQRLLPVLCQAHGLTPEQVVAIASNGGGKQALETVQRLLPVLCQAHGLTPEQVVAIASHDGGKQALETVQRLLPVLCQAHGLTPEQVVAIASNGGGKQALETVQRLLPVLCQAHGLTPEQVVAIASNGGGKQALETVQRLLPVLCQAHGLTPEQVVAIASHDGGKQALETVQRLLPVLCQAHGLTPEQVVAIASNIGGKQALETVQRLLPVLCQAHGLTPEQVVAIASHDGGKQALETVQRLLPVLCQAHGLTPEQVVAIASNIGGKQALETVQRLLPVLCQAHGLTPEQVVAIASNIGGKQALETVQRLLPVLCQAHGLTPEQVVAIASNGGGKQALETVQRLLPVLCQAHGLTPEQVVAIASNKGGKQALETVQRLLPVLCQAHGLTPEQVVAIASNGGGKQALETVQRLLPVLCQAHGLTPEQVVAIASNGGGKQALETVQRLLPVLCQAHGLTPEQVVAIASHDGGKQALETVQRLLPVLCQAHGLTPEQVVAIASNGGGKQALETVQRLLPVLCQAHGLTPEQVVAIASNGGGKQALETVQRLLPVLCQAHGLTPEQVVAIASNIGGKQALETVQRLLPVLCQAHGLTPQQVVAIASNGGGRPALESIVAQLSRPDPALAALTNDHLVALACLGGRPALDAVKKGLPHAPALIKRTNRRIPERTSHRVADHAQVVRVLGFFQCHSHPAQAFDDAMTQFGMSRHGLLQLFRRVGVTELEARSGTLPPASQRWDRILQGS

[2] = molecular target: T2, TALER18 (synthetic, UniProt B2SU53 SEQ:1-1010)
T2 chain: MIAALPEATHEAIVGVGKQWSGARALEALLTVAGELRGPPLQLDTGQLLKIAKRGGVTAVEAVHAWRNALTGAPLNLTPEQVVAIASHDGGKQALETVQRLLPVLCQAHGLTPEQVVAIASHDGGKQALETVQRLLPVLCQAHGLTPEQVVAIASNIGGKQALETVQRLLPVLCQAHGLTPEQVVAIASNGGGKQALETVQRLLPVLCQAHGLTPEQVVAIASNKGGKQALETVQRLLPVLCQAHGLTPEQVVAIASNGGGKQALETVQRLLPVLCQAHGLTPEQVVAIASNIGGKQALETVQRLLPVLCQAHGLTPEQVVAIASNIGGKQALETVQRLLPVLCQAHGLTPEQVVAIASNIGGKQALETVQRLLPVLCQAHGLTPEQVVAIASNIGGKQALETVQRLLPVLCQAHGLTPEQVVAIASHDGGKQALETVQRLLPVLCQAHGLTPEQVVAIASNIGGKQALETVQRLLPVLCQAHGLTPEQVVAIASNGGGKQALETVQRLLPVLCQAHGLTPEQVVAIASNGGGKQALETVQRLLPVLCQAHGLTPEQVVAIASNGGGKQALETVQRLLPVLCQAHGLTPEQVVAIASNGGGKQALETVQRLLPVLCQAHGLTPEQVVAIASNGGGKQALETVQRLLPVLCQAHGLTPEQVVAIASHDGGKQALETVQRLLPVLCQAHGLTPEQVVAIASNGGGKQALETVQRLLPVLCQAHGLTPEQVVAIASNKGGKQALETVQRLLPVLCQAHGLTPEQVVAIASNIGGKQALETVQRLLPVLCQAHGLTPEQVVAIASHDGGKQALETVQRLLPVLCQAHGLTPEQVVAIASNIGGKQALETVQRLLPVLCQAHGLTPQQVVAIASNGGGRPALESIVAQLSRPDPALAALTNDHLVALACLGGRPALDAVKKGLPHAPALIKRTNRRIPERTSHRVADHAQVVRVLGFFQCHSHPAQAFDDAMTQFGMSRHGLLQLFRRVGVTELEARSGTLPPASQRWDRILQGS

[3] = molecular target: T3, TALER12 (synthetic, UniProt Q56830 SEQ:262-1344)
T3 chain: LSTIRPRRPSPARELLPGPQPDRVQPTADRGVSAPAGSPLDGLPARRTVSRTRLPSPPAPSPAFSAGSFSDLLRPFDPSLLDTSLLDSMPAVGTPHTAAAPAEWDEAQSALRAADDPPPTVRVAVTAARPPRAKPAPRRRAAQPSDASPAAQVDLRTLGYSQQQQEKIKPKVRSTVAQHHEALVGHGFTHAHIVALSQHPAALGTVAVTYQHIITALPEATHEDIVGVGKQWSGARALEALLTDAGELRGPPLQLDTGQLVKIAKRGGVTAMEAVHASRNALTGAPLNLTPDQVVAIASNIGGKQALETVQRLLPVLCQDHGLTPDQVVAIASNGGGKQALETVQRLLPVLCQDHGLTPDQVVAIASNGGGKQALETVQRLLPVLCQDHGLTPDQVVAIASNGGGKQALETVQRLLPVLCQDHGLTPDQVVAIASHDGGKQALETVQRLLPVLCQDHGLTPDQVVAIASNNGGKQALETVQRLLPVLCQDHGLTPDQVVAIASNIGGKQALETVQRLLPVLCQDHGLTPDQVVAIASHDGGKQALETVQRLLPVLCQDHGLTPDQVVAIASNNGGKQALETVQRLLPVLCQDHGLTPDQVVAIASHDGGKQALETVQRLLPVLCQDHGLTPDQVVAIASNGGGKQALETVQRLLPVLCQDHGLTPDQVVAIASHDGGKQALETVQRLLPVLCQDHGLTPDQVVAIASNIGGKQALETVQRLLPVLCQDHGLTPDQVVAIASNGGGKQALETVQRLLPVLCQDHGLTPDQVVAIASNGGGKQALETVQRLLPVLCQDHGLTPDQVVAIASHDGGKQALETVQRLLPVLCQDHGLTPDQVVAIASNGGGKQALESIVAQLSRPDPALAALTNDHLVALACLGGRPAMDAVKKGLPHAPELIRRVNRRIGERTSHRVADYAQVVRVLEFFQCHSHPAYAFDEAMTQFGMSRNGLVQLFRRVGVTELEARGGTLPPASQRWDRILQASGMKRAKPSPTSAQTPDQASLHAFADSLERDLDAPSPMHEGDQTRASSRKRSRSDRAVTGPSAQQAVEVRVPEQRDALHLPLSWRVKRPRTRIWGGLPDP

[4] = molecular target: T4, TALER15 (synthetic, UniProt B2SU53 SEQ:1-1010)
T4 chain: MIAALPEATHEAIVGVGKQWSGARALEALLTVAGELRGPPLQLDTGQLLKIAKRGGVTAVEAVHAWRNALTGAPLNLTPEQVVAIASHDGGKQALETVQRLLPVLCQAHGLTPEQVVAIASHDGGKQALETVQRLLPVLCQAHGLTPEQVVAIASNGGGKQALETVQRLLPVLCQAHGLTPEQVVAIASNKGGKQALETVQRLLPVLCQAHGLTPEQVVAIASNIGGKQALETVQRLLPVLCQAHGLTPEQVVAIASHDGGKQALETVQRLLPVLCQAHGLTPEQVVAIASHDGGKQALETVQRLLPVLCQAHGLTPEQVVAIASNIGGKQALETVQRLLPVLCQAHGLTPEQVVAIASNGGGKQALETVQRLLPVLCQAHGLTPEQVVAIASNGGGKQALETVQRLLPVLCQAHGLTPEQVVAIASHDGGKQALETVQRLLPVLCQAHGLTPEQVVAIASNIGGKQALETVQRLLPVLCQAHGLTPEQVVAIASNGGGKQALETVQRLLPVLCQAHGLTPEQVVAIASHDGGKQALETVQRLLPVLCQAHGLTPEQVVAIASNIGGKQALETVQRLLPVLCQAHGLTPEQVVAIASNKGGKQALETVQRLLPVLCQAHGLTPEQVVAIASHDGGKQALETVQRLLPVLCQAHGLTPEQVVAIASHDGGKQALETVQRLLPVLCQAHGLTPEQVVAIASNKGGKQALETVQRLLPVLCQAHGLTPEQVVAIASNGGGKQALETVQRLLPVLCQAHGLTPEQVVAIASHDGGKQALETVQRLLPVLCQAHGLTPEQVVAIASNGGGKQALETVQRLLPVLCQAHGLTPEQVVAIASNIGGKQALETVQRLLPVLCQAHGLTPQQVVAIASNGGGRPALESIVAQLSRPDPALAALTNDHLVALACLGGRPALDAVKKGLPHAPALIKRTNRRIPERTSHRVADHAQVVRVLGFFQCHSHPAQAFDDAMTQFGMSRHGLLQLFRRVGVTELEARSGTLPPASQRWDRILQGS

[5] = molecular target: T5, TALER17 (synthetic, UniProt B2SU53 SEQ:1-1010)
T5 chain: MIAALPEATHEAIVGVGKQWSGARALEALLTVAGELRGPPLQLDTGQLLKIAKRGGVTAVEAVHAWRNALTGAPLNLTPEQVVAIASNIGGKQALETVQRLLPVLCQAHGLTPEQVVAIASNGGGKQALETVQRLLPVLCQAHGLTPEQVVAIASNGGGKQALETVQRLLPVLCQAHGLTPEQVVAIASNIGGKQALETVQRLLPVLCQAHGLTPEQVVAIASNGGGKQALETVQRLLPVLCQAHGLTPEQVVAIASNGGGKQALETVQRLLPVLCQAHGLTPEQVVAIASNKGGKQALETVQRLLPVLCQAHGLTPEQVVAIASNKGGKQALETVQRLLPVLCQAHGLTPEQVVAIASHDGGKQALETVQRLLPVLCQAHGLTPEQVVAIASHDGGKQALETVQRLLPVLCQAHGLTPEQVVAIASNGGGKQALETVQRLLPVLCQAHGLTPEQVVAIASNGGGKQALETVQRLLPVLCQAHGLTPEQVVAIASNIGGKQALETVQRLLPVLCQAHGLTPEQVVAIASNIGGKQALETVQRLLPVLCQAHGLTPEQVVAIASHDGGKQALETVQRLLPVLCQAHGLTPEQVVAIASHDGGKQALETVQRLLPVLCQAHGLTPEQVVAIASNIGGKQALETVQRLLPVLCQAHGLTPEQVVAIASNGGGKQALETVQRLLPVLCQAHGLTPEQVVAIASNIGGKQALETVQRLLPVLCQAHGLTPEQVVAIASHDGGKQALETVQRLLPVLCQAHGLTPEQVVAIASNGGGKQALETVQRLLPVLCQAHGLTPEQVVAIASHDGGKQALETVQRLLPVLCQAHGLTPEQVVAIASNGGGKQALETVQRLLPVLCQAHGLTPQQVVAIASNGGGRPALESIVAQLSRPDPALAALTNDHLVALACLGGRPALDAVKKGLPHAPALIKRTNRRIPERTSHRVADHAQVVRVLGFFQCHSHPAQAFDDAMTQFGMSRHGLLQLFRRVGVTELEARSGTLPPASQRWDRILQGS

B1: T20 site (dsDNA)
DNA 1: TCTAGACTCTTCACAATGTTCTTAT
DNA 2: ATAAGAACATTGTGAAGAGTCTAGA
Q: B1 was tested. Which binding signal [1] did it give?
A: The binding signal was 12.3 fold repression.

B2: T18 site (dsDNA)
DNA 1: TCCATGTAAAACATTTTTCTGACAT
DNA 2: ATGTCAGAAAAATGTTTTACATGGA
Q: B2 was tested. Which binding signal [2] did it give?
A: The binding signal was 18.5 fold repression.

B3: T12 site (dsDNA)
DNA 1: TATTTCGACGCTCATTCT
DNA 2: AGAATGAGCGTCGAAATA
Q: Which binding signal [3] does the source give for B3 here?
A: Its binding signal is 1220 fold repression.

B4: T15 site (dsDNA)
DNA 1: TCCTGACCATTCATCAGCCGTCTAT
DNA 2: ATAGACGGCTGATGAATGGTCAGGA
Q: How did the binding signal [4] turn out when B4 was run?
A: The binding signal was 13.7 fold repression.

B5: T17 site (dsDNA)
DNA 1: TATTATTGGCCTTAACCATACTCTT
DNA 2: AAGAGTATGGTTAAGGCCAATAATA
Q: With B5 as the binder, how does the binding signal [5] read?
A: The binding signal was 195 fold repression.
